Measured values taken from the supplement of paper PMC7125110.
± gives the standard error. This sample holds only a part of the variants without activity.

B1: glmS ribozyme (parent)
chain: AUAAAAGCGCCAGAACUACAGAAAUGUAGUUGACGAGGAGGAGGUUUAUCGAAUUUUCGGCGGAUGCCUCCAAA

Experiments:
Details in all cases: with glucosamine-6-phosphate
[1] = variants of: B1; test: self-cleavage kobs at 40 uM GlcN6P; higher = faster cleavage; RNA array
Outline: (§1)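 In situ transcription by E. coli RNA polymerase produced barcoded ribozyme variants on sequenced MiSeq chips, and a hybridised Cy3 probe tracked them at 37 °C. Glucosamine-6-phosphate was flowed in at 40 μM to 10 mM in HEPES/KCl/Mg(OAc)2 buffer. kcat and KM were taken from weighted Michaelis–Menten fits of kobs values from exponential decay fits.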

[2] = variants of: B1; test: self-cleavage kobs at 10000 uM GlcN6P; higher = faster cleavage; RNA array
Outline: as §1

[3] = variants of: B1; test: self-cleavage kobs at 160 uM GlcN6P; higher = faster cleavage; RNA array
Outline: as §1

[4] = variants of: B1; test: self-cleavage kobs at 640 uM GlcN6P; higher = faster cleavage; RNA array
Outline: as §1

[5] = variants of: B1; test: self-cleavage kobs at 2500 uM GlcN6P; higher = faster cleavage; RNA array
Outline: as §1

Variant	self-cleavage kobs at 40 uM GlcN6P [1] [s⁻¹]	self-cleavage kobs at 10000 uM GlcN6P [2] [s⁻¹]	self-cleavage kobs at 160 uM GlcN6P [3] [s⁻¹]	self-cleavage kobs at 640 uM GlcN6P [4] [s⁻¹]	self-cleavage kobs at 2500 uM GlcN6P [5] [s⁻¹]
C11G G37C G40U G51A U65C	< 1e-05	< 1e-05			
C8G G66U	< 1e-05		< 1e-05	< 1e-05	< 1e-05
G9U A14G G59C C68U	< 1e-05	< 1e-05			
G13C G29U G32A	7.61e-05 ± 2.4e-05	0.00214 ± 0.00069			
G44A G63A	< 1e-05		< 1e-05	< 1e-05	< 1e-05
A52U G62A	< 1e-05	< 1e-05		< 1e-05	< 1e-05
A52U C61A	< 1e-05	< 1e-05			
C8A A42G C68U	< 1e-05	< 1e-05			
G7U C10G A15C G37C	< 1e-05				
U31A U46A C61U C70U	< 1e-05				
A42U U46G C50U C70U	< 1e-05	< 1e-05			
G32U U46C G51U	< 1e-05	< 1e-05			
C11G A12C G38A	< 1e-05				
A6G A36G	< 1e-05	< 1e-05		< 1e-05	< 1e-05
C50G G59C C67G	0.00018 ± 5.4e-05	0.000119 ± 2.8e-05			
G13A U31A A48C C50U G60U C67A	< 1e-05	< 1e-05			
U30C A48C	< 1e-05	< 1e-05	< 1e-05	< 1e-05	< 1e-05
U31A C67A	0.000109 ± 1.4e-05	0.00388 ± 0.00061	0.000473 ± 8.4e-05	0.000764 ± 0.00012	
C50G U65C C67U	6.84e-05 ± 1.4e-05	9.96e-05 ± 1.4e-05			0.000106 ± 2e-05
C10A G38A A53U C68A	< 1e-05				
A36G A48U	< 1e-05	< 1e-05	< 1e-05	< 1e-05	< 1e-05
A15C G41A C70U	0.000261 ± 6.2e-05	0.0111 ± 0.0023			
G21U U46A	6.35e-05 ± 2.2e-05	0.00269 ± 0.00086			0.00271 ± 0.0012
C8G G43C	< 1e-05	< 1e-05	< 1e-05	< 1e-05	< 1e-05

Variant	self-cleavage kobs at 40 uM GlcN6P [1] [s⁻¹]	self-cleavage kobs at 10000 uM GlcN6P [2] [s⁻¹]	self-cleavage kobs at 160 uM GlcN6P [3] [s⁻¹]	self-cleavage kobs at 640 uM GlcN6P [4] [s⁻¹]	self-cleavage kobs at 2500 uM GlcN6P [5] [s⁻¹]
A12U G29C	0.00079 ± 0.00011	0.0212 ± 0.0041	0.000653 ± 0.00013	0.00446 ± 0.00073	0.00717 ± 0.0026
A48U G51U U65G C71U	< 1e-05				< 1e-05
G51C C58A C70A	< 1e-05				
A39G G40A	0.000261 ± 8e-05			0.00167 ± 0.00076	0.00889 ± 0.0023
U31A U65C U69C	< 1e-05				
A15C U46A C58U	< 1e-05				
A14U A48C G51C U65G	< 1e-05	< 1e-05			
G9U C34A G35C G43U	< 1e-05				< 1e-05
G29U G40A U45A	5.2e-05 ± 1.6e-05	0.000439 ± 0.00011		0.00011 ± 2.8e-05	0.000444 ± 8.6e-05
G32C G35U	< 1e-05	< 1e-05	< 1e-05	< 1e-05	< 1e-05
A14G U45G A64U	< 1e-05				
A14C A36G C71U	< 1e-05				
C8U C10U C70G	5.14e-05 ± 2.4e-05	5.37e-05 ± 1.7e-05	8.73e-05 ± 2.6e-05	0.000103 ± 2.5e-05	0.000587 ± 0.00021
C11A C68A	< 1e-05				
U47A U49C	< 1e-05			< 1e-05	< 1e-05
G7A G9U A48G	< 1e-05				
A53U G66A C67U	7.59e-05 ± 1.6e-05	0.00355 ± 0.00067			
A15U A36U G60A	< 1e-05				
G40U U54A	7.88e-05 ± 1.1e-05	0.0025 ± 0.00054	0.000207 ± 2.7e-05	0.000391 ± 5.1e-05	0.00192 ± 0.00039
A6C G13A A52C	< 1e-05	< 1e-05			< 1e-05
A12U G38C A52G C58A	< 1e-05				
C34G G62U	< 1e-05	< 1e-05			< 1e-05
C10G U55G	< 1e-05				
C11U A14U G43U U54A G63A	< 1e-05				< 1e-05

Variant	self-cleavage kobs at 40 uM GlcN6P [1] [s⁻¹]	self-cleavage kobs at 10000 uM GlcN6P [2] [s⁻¹]	self-cleavage kobs at 160 uM GlcN6P [3] [s⁻¹]	self-cleavage kobs at 640 uM GlcN6P [4] [s⁻¹]	self-cleavage kobs at 2500 uM GlcN6P [5] [s⁻¹]
A42C C61U C71A	< 1e-05				
A14U G51A	< 1e-05	< 1e-05			
U31C G35A	< 1e-05	< 1e-05	< 1e-05	< 1e-05	< 1e-05
C10A G66U	< 1e-05		< 1e-05		
G13C U57G	< 1e-05				
G29A G35A C68G	0.000947 ± 0.00027	0.000106 ± 3.5e-05			
A6G C10G U31G U55A	< 1e-05				
G38U U47G C70G	0.000113 ± 3.3e-05	9.01e-05 ± 2.3e-05			
A6C G9C C11U C34G G38A U55C G59A C67U	< 1e-05	< 1e-05			
G51C U55G	< 1e-05	< 1e-05	< 1e-05	< 1e-05	< 1e-05
G38C U57C	< 1e-05	< 1e-05	< 1e-05		
A6G A52G	< 1e-05		< 1e-05		
G32U A52G C58A C70A	5.29e-05 ± 2.5e-05	4.31e-05 ± 2e-05			
G32U G43U G44U G60A	< 1e-05			< 1e-05	< 1e-05
C16U G43C	< 1e-05	< 1e-05			
G7C A12U G38U G40C U49G U56G	< 1e-05				
C10A G62U	< 1e-05	< 1e-05	< 1e-05		
A6G C34A	< 1e-05	< 1e-05	< 1e-05	< 1e-05	< 1e-05
A6C A42C	< 1e-05	< 1e-05	< 1e-05	< 1e-05	
G7A G40A A53G G60C C68U	< 1e-05			< 1e-05	< 1e-05
G35C A48U	< 1e-05	< 1e-05			< 1e-05
A12U C68G C70G	< 1e-05				
G32C C34U A64G C68G	< 1e-05	< 1e-05			
G32C G43U U47C	< 1e-05				

Variant	self-cleavage kobs at 40 uM GlcN6P [1] [s⁻¹]	self-cleavage kobs at 10000 uM GlcN6P [2] [s⁻¹]	self-cleavage kobs at 160 uM GlcN6P [3] [s⁻¹]	self-cleavage kobs at 640 uM GlcN6P [4] [s⁻¹]	self-cleavage kobs at 2500 uM GlcN6P [5] [s⁻¹]
A42G U47A	0.000848 ± 0.00018	0.00752 ± 0.0028	0.00279 ± 0.0011	0.00967 ± 0.0013	0.0269 ± 0.0085
G9A C58U C61G	< 1e-05	< 1e-05			
C34A	< 1e-05		< 1e-05	< 1e-05	< 1e-05
G51A A64C	< 1e-05	< 1e-05	< 1e-05		< 1e-05
G40U A48G G63U	< 1e-05	< 1e-05	< 1e-05	< 1e-05	
A53U G62C	< 1e-05	< 1e-05		< 1e-05	< 1e-05
G41U G63U	< 1e-05	< 1e-05	< 1e-05	< 1e-05	< 1e-05
U31G G35C	< 1e-05		< 1e-05	< 1e-05	< 1e-05
C34A G44U G51C	< 1e-05	< 1e-05		< 1e-05	< 1e-05
G13C G59C	< 1e-05	< 1e-05	< 1e-05	< 1e-05	
C10G G37A	< 1e-05	< 1e-05	< 1e-05	< 1e-05	
C8A C34G	< 1e-05	< 1e-05	< 1e-05	< 1e-05	< 1e-05
U55A G62A	< 1e-05				< 1e-05
U31C G66C C67G	< 1e-05				
G35A C50G U55A C61G	0.000205 ± 5.1e-05	0.000255 ± 4e-05			
G7A A39C A52U G60A C67U	< 1e-05				
C10G A48U	< 1e-05	< 1e-05	< 1e-05	< 1e-05	< 1e-05
A15G G38C	< 1e-05		< 1e-05	< 1e-05	< 1e-05
C8A G9U	< 1e-05	< 1e-05	< 1e-05	< 1e-05	< 1e-05
C8G G13A G37U G44C A53U G63U	< 1e-05				
G32A A33U C68G C71G	0.000162 ± 3.9e-05	0.000152 ± 3.2e-05		0.000432 ± 0.0001	9.26e-05 ± 3.4e-05
A14U G35C	< 1e-05	< 1e-05	< 1e-05	< 1e-05	< 1e-05
C10U G40U U49C C70A	< 1e-05	< 1e-05			
